# Measurements taken from paper PMC12159506.
# B1: SmBiT-C-CaSR-WT [not stated] / LgBiT-N-AP2σ-WT [not stated] (parent)
# chain 1: not shown
# chain 2: YGPDQRAQKKGDIILGGLFPIHFGVAAKDQDLKSRPESVECIRYNFRGFRWLQAMIFAIEEINSSPALLPNLTLGYRIFDTCNTVSKALEATLSFVAQNKIDSLNLDEFCNCSEHIPSTIAVVGATGSGVSTAVANLLGLFYIPQVSYASSSRLLSNKNQFKSFLRTIPNDEHQATAMADIIEYFRWNWVGTIAADDDYGRPGIEKFREEAEERDICIDFSELISQYSDEEEIQHVVEVIQNSTAKVIVVFSSGPDLEPLIKEIVRRNITGKIWLASEAWASSSLIAMPQYFHVVGGTIGFALKAGQIPGFREFLKKVHPRKSVHNGFAKEFWEETFNCHLQEGAKGPLPVDTFLRGHEESGDRFSNSSTAFRPLCTGDENISSVETPYIDYTHLRISYNVYLAVYSIAHALQDIYTCLPGRGLFTNGSCADIKKVEAWQVLKHLRHLNFTNNMGEQVTFDECGDLVGNYSIINWHLSPEDGSIVFKEVGYYNVYAKKGERLFINEEKILWSGFSREVPFSNCSRDCLAGTRKGIIEGEPTCCFECVECPDGEYSDETDASACNKCPDDFWSNENHTSCIAKEIEFLSWTEPFGIALTLFAVLGIFLTAFVLGVFIKFRNTPIVKATNRELSYLLLFSLLCCFSSSLFFIGEPQDWTCRLRQPAFGISFVLCISCILVKTNRVLLVFEAKIPTSFHRKWWGLNLQFLLVFLCTFMQIVICVIWLYTAPPSSYRNQELEDEIIFITCHEGSLMALGFLIGYTCLLAAICFFFAFKSRKLPENFNEAKFITFSMLIFFIVWISFIPAYASTYGKFVSAVEVIAILAASFGLLACIFFNKIYIILFKPSRNTIEEVRCSTAAHAFKVAARATLRRSNVSRKRSSSLGGSTGSTPSSSISSKSNSEDPFPQPERQKQQQPLALTQQEQQQQPLTLPQQQRSQQQPRCKQKVIFGSGTVTFSLSFDEPQKNAMAHRNSTHQNSLEAQKSSDTLTRHEPLLPLQCGETDLDLTVQETGLQGPVGGDQRPEVEDPEELSPALVVSSSQSFVISGGGSTVTENVVNS
# Variants of: B1
# Assay: NanoBiT split-luciferase
# Conditions: with LgBiT-N-AP2σ-WT; N = 7; read off a plot
row,response,Variant
1,4.9,chain 2 S985A
2,4.8,chain 2 S959A
3,2.4,chain 2 L994A L995A
4,4.9,chain 2 T987A
5,4.7,chain 2 T989A

# Same assay, conditions: with LgBiT-N-AP2σ-WT; N = 10; read off a plot
row,response,Variant
1,3,chain 2 H991A
2,3.8,chain 2 R990A
3,2.1,chain 2 L994A L995A
4,4.5,chain 2 P993A

# Same assay, conditions: with LgBiT-N-AP2σ-WT; N = 6; read off a plot
row,response,Variant
1,3.2,chain 2 L994A L995A
2,3.6,chain 2 R990A H991A E992A P993A L994A L995A
